Results as given in the supplement of paper PMC9170038.

Test system: K4 kissing-loop RNA reporter
Experiment: apparent KD of K4 kissing-loop reporter; higher = weaker reporter binding
Details: Eterna round: R107; input ligand: arginine 13.2 mM
Method: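 RNA-MaP round R107: designed RNA switches with theophylline, tryptophan, arginine or FMN aptamers are transcribed on-chip within common flanks. They are titrated with a labelled K4 kissing-loop RNA reporter in RNA-MaP buffer (100 mM Tris pH 7.5, 80 mM KCl, 4 mM MgCl2), without ligand or with the indicated ligand. Median apparent KD per design.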
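Also: bound reporter read as fluorescence of individual clusters on recovered sequencing chips by microscopy, with normalized cluster intensities fitted with a binding model.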

Sequence | apparent KD of K4 kissing-loop reporter [nM]
UGUACCGAGUUAGGAUAUGUCGUCGAAAGACGAAAUGGAGUGAUGUUCCUUAAACUGCGAAAGCAGACAGAAGGAACUUGGUACU [FmnBS 29 U11+A75] | 627
GAUGUCUAGAGAUCAUCUAGACACCUAGAUACCAGCAGAUAUAUCUGCCCUUGGCAGCUAGAACCAGUGAUGUUGGUAUAUGCUC [Theo A SS t3] | 256
AGUGUUAGGUUAGAUACCAGCCGUCUGUGGAUAAUCCUCAGACCGCCAGUGAUGUUGGCAGGCCCUUGGCAGCUAACAGGACAGA [Mavebius] | 268
UUUGGUUUCUCGGCCGCCACUCGUUGGUUAUGGGCCUCAGGGAUAUAGUGAUGUUAUGUAAAGAAGAGGACCGGGAGAAGGAAGG [ExTryptoB.Do] | 395
CUAGGCCCUCGGCGGGACAUUGCGUGGGAAGGAGCGCAGAUAACUGCAGGUAGGUCGCCCAGUGAUGUUGGGCGAAUAUUGGUCA [Esinabige] | 98.3
AAAUAGAUCAGUCACCCAGUGAUGUUGGAAGGAGCGUGCGAAAGCACAGGUAGGUCGCCAAAAUAAAAUUGGCUGAUCAAAAUAA | 310

Same assay, conditions: Eterna round: R107; input ligand: none

Sequence | apparent KD of K4 kissing-loop reporter [nM]
CUGGUUCAGUGAUGUUGGAAGGUUUAGGUGAAGGAUAUAUUGCAUAAUAGAAGGUCACGGCCAUGCAAUUAUUAACGUAGCCUGU [theeternabot_exclusion_KL_FMN_A_3] | 172
GAGCCAGAAGUUGCUGCGGGUUUCAGAGAUACCAGCCGUAUUGUAGGCCCUUGGCAGCUCGAGUGAUGUUCGAGCCGCUUCUAGC [Inma] | 120
UGUAAGCGCGUAGAUACCAGCAAACAAAGAGUGAUGUUCAGAUUAAGGAAAAGAAAGUAAUGCCCUUGGCAGCUAAUCAUAAGCG [Theophylline B Exclusion; Euphoria Solution] | 354
AUGUAUGAAUUAGGAUAUCGUUAGCCUUUCAUAUAUAUGAUAAAUGGAUAUGUCGUAGUGAUGUUACGAGAAGGAGUGUGGAGUA [KL-XFMN-B8] | 38.2
AAGUCACAGGCAGGAUAUGCUUAGUAUUAAGGCCAUAUAUACGUAUAGAGUGAUGUUUUGUACCAGGCAGAAGGGCUACAUCCGU [FMN B Excl V4 (+U)] | 656
GCAGUGAUGUUGCAACCGCGUACGAUGCCUCGAGGACCGGUACGGCCGCCACUCGUCCUGGUUCAGGAGCUACAGACAUAGCUCA [theeternabot_sameState_KL_Trp_A_2] | 781
GUGCAAAGCACCGGCACGAGCAGCCUAAAGGAGGAUAUGACGAAAGUCAGAAGGUCUAGUGAUGUUAGGCCUUGCUUGAGUCGAA [Omei KL FMN A Exc B v3] | 402
AAAUUUUCAAGUGAUACCAGACAUCUCUAUUACAUUAAUAUAGCUAAGUGAUGUUUAGCAGUCCCUUGGCAGCACAAUUUAAUUA [JR_SSTheophyB_Sub013] | 297
GUGCGGCUAGUGAUGUUGGUUGUGUGGGAAGGAGCGCAGAUACAUGCAGGUAGGUCGCCCACACCUCUGAAAGGAGGCUAAUUCA [KL-SSArg-A15] | 411
UGGAUAUAGUGAUGUUAUAUAGAGAUGGAUACCAGUUUAGAGAAGAGCCCUUGGCAGCCGAAAGAAGUAUCAUUAGAGAAGAAUG [ExTheophyl.Al] | 214
UUUAUAAGGUCGGCCGCCACUGGAUUUAUGUUUGUUUCGUCUGGAUCAAAGUGAUGUUUUGAGUCCAGGACCGGGACAUUUGUUA [whbob_Ex_Tryp_B_w39] | 79.3
CCGACUGCAGGAAGGAGCGGCGGUUGGAGUGAUGUUCCGGGUAGUGAUGUUACCAAACUCCGCCAGGUAGGUCGCCUGUUGCUCG [Same State Arginine B GF10] | 165
GAUUUAGAGGCGGCCGCCACUAGUGAUGUUAGUGAUGUUUGAUACUGAAUAUAUCGGCGUGUAGAUAGGACCGGGCCAGAUGGAG [zwqqmullin] | 218
GUUACGCAUGGAAGGAGCGCACUCCGGUUGAUCGACACAGUGAUGUUGUGGUUCAUUCGAAUGCAGGUAGGUCGCCAUGUGUAAC [Ex Arginine B K4 15] | 847
AAGCAGUCACUCAAAGCCAUCGAAGAUGGUCGAGGACCGGUACGGCCGCCACUCGGAGUGAUGUUCCGAAGACUGCAAAAUAAAA | 424
GGGUGGCAGGCGGCCGCCACUCUGAGGGUCCACAGUGAUGUUGUGGGCGCGUAAGCGUCUUCAUAGAGGACCGGGUUUGUUGUUC [Same State Tryptophan B GF 24] | 454
UAGUGAAUAGAAGGAUAUUGAUAUGAAAGAUGCAGUGAUGUUGCCCGUAGCAGUCAGUAAUACGUGCAAGAAGGUCUGUGCGCGA [theeternabot_exclusion_KL_FMN_B_3] | 69.2
CCAUUCAUCAGAAGGAGCGUCAAGUGAUGCUAUCCAGUGAUGUUGGAUAGCACGGAACAGUGACAGGUAGGUCGCUGAUGAGAGC [Arg B SS t8] | 115
GCUAUGGUAGGAAGGAGCGCGGACGAUAUUUAUCGAGUGAUGUUCGAAUAAUUAAAUAAAACGCAGGUAGGUCGCCUACUAUAGC [Arginine B K4 27] | 99.9
UGUACCGAGACAGGAUAUGUCGUCGAAAGACGAAAUGGAGUGAUGUUCCUUAAACUGCGAAAGCAGACAGAAGGGUCUUGGUACU [FmnBS 29 A10+U76] | 163
UUUAUUAAGACGGCCGCCACUGAUUCAGAGUGAUGUUCUGAUAUUUUUUUAUAUAAUAAUAACAGCAGGACCGGGUCAAUUAUUA [JR_SSTryptoB_Sub013] | 233
